# Results taken from US20030236190A1 (published 2003).
# Positions of bridges follow the written chain, without caps; N, C: chain ends. No end group written: not given here.
# Biological target: T1, Soluble IGF-1R (R&D Systems, Cat. # 391-GR/CF); recombinant human IGF-1R (human, UniProt P08069 31-935)
# T1 construct: extracellular domain; Eu3+-labelled in the TR-FRET assays; also called sIGF-1R; rhIGF-1R
# Experiment: phage ELISA, vs IR
row,Binder,IGF-1R/IR Comparison
1,QFYGCLLDLSLGVPSFGWRRRCITA (disulfide 5-22 (inferred)) [20C-3-A4-IGFR],7.6 ratio
2,DSVGDNFYQLLESLVGGHGVG [20E28-3-D6-IGFR],6.9 ratio
3,RGIVAMVEATEVGSDHDPFYHKLSELVQGS [B6Hα-2-C7-IR],6.7 ratio
4,QPDHSYFYSLLQELVGSEERL [20E2B-4-F9-IGFR],7.7 ratio
5,DRDFCRFYERLTALVGGQVDGGWPC (disulfide 5-25 (inferred)) [20C-3-F6-IGFR],14.1 ratio
6,IWATGDFYRLLSQLVMGRVGT [20E2B-2-88-IGFR],7.2 ratio
7,IQQELTFYDLLHRLVRSELGS [20E2B-3-D2-IGFR],11.7 ratio
8,LRIANLFYQRLWDLAFGGGG [20E22-3-E8-IGFR],11.1 ratio
9,GVRAMSFYDALVSVLGLGPSG [20E2B-1-A6-IGFR],16.8 ratio
10,RGQSDAFYSGLWALIGLSDG [R20β-4-A6-IR],17.3 ratio
11,DRAFYNGLRDLVGAVYGAWD [R20α-4-20C11-IR],10.3 ratio
12,PVGVQGFYEGLSRLVLGRGGW [20E22-4-F8-IGFR],9.7 ratio
13,RFSTDGFYQYLLALVGGGPVG [20E28-1-A11-ICFR],9.7 ratio
14,RGMKEEVLVGGSTDPFYHKLSELLQGS [B6Hα-3-F11-IR],11.7 ratio
15,ASSASGFYELLQRLAGLGLEV [20E2B-3-C4-1GFR],6.2 ratio
16,ICTGQGFYQVLCGLLRGTSAR (disulfide 2-12 (inferred)) [20E2B-2-B3-IGFR],7.4 ratio
17,QGNVLDFYGWIGRLLAKQGSD [20E2B-3-D12-IGFR],7.3 ratio
18,SSYGCDGFYLMLFSLGLVASQELEC (disulfide 5-25 (inferred)) [20C-3-A1-IGFR],13.7 ratio

# Biological target: T2, Insulin receptor prepared according to Bass et al., 1996: soluble human insulin receptor-immunoglobulin heavy … (human, UniProt P06213 28-956)
# T2 construct: extracellular domain; Eu3+-labelled in TR-FRET; also called IR; sIR-Fc; not shown: immunoglobulin heavy chain constant domains that replace the transmembrane and i
# Experiment: phage ELISA, vs IGF-1R
row,Binder,IR/IGF-1R Comparison
1,QFYGCLLDLSLGVPSFGWRRRCITA (disulfide 5-22 (inferred)) [20C-3-A4-IGFR],0.1 ratio
2,DSVGDNFYQLLESLVGGHGVG [20E28-3-D6-IGFR],0.1 ratio
3,RGIVAMVEATEVGSDHDPFYHKLSELVQGS [B6Hα-2-C7-IR],0.1 ratio
4,QPDHSYFYSLLQELVGSEERL [20E2B-4-F9-IGFR],0.1 ratio
5,DRDFCRFYERLTALVGGQVDGGWPC (disulfide 5-25 (inferred)) [20C-3-F6-IGFR],0.1 ratio
6,IWATGDFYRLLSQLVMGRVGT [20E2B-2-88-IGFR],0.1 ratio
7,IQQELTFYDLLHRLVRSELGS [20E2B-3-D2-IGFR],0.1 ratio
8,LRIANLFYQRLWDLAFGGGG [20E22-3-E8-IGFR],0.1 ratio
9,GVRAMSFYDALVSVLGLGPSG [20E2B-1-A6-IGFR],0.1 ratio
10,RGQSDAFYSGLWALIGLSDG [R20β-4-A6-IR],0.1 ratio
11,DRAFYNGLRDLVGAVYGAWD [R20α-4-20C11-IR],0.1 ratio
12,PVGVQGFYEGLSRLVLGRGGW [20E22-4-F8-IGFR],0.1 ratio
13,RFSTDGFYQYLLALVGGGPVG [20E28-1-A11-ICFR],0.1 ratio
14,RGMKEEVLVGGSTDPFYHKLSELLQGS [B6Hα-3-F11-IR],0.1 ratio
15,ASSASGFYELLQRLAGLGLEV [20E2B-3-C4-1GFR],0.2 ratio
16,ICTGQGFYQVLCGLLRGTSAR (disulfide 2-12 (inferred)) [20E2B-2-B3-IGFR],0.1 ratio
17,QGNVLDFYGWIGRLLAKQGSD [20E2B-3-D12-IGFR],0.1 ratio
18,SSYGCDGFYLMLFSLGLVASQELEC (disulfide 5-25 (inferred)) [20C-3-A1-IGFR],0.1 ratio

# Biological target: T2, Insulin receptor prepared according to …
# Experiment: phage ELISA vs milk
row,Binder,Ratio over Background
1,QFYGCLLDLSLGVPSFGWRRRCITA (disulfide 5-22 (inferred)) [20C-3-A4-IGFR],1.2 fold
2,DSVGDNFYQLLESLVGGHGVG [20E28-3-D6-IGFR],2.6 fold
3,RGIVAMVEATEVGSDHDPFYHKLSELVQGS [B6Hα-2-C7-IR],1 fold
4,QPDHSYFYSLLQELVGSEERL [20E2B-4-F9-IGFR],1.9 fold
5,DRDFCRFYERLTALVGGQVDGGWPC (disulfide 5-25 (inferred)) [20C-3-F6-IGFR],1.9 fold
6,IWATGDFYRLLSQLVMGRVGT [20E2B-2-88-IGFR],0.8 fold
7,IQQELTFYDLLHRLVRSELGS [20E2B-3-D2-IGFR],1.2 fold
8,LRIANLFYQRLWDLAFGGGG [20E22-3-E8-IGFR],1.5 fold
9,GVRAMSFYDALVSVLGLGPSG [20E2B-1-A6-IGFR],1.1 fold
10,RGQSDAFYSGLWALIGLSDG [R20β-4-A6-IR],1.5 fold
11,DRAFYNGLRDLVGAVYGAWD [R20α-4-20C11-IR],3 fold
12,PVGVQGFYEGLSRLVLGRGGW [20E22-4-F8-IGFR],0.8 fold
13,RFSTDGFYQYLLALVGGGPVG [20E28-1-A11-ICFR],1 fold
14,RGMKEEVLVGGSTDPFYHKLSELLQGS [B6Hα-3-F11-IR],1.6 fold
15,ASSASGFYELLQRLAGLGLEV [20E2B-3-C4-1GFR],3.3 fold
16,ICTGQGFYQVLCGLLRGTSAR (disulfide 2-12 (inferred)) [20E2B-2-B3-IGFR],0.7 fold
17,QGNVLDFYGWIGRLLAKQGSD [20E2B-3-D12-IGFR],0.9 fold
18,SSYGCDGFYLMLFSLGLVASQELEC (disulfide 5-25 (inferred)) [20C-3-A1-IGFR],1.5 fold

# Biological target: T1, Soluble IGF-1R (R&D Systems, Cat. # …)
# Experiment: phage ELISA vs milk
row,Binder,Ratio over Background
1,QFYGCLLDLSLGVPSFGWRRRCITA (disulfide 5-22 (inferred)) [20C-3-A4-IGFR],8.8 fold
2,DSVGDNFYQLLESLVGGHGVG [20E28-3-D6-IGFR],17.8 fold
3,RGIVAMVEATEVGSDHDPFYHKLSELVQGS [B6Hα-2-C7-IR],6.7 fold
4,QPDHSYFYSLLQELVGSEERL [20E2B-4-F9-IGFR],14.7 fold
5,DRDFCRFYERLTALVGGQVDGGWPC (disulfide 5-25 (inferred)) [20C-3-F6-IGFR],26.1 fold
6,IWATGDFYRLLSQLVMGRVGT [20E2B-2-88-IGFR],5.7 fold
7,IQQELTFYDLLHRLVRSELGS [20E2B-3-D2-IGFR],12.4 fold
8,LRIANLFYQRLWDLAFGGGG [20E22-3-E8-IGFR],16.7 fold
9,GVRAMSFYDALVSVLGLGPSG [20E2B-1-A6-IGFR],18.1 fold
10,RGQSDAFYSGLWALIGLSDG [R20β-4-A6-IR],25.9 fold
11,DRAFYNGLRDLVGAVYGAWD [R20α-4-20C11-IR],30.8 fold
12,PVGVQGFYEGLSRLVLGRGGW [20E22-4-F8-IGFR],7.3 fold
13,RFSTDGFYQYLLALVGGGPVG [20E28-1-A11-ICFR],9.5 fold
14,RGMKEEVLVGGSTDPFYHKLSELLQGS [B6Hα-3-F11-IR],18.7 fold
15,ASSASGFYELLQRLAGLGLEV [20E2B-3-C4-1GFR],20.4 fold
16,ICTGQGFYQVLCGLLRGTSAR (disulfide 2-12 (inferred)) [20E2B-2-B3-IGFR],5.3 fold
17,QGNVLDFYGWIGRLLAKQGSD [20E2B-3-D12-IGFR],6.2 fold
18,SSYGCDGFYLMLFSLGLVASQELEC (disulfide 5-25 (inferred)) [20C-3-A1-IGFR],20.8 fold
